Results: patent US20200165328A1 (Janssen / Centocor, published 2020)

Tests used:
rodent Aβ3pE-40 = target: T1, rodent Aβ3pE-40 (rodent, UniProt P12023 674-711, pyroglutamate at the third residue of Aβ (N-terminal residue of this peptide)); experiment: sandwich ELISA, Aβ/pE3/1 coated, detection with JRF/cAβ40/28-HRPO
T1 construct: domain: Aβ3pE-40; Synthetic peptide
T1 peptide (looked up): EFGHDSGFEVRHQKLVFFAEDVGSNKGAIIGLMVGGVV
Protocol: (§1) Concentrations up to 10,000 […] were tested.
(§2) Standards were dissolved in dimethylsulphoxide (DMSO) (Sigma) at 0.1 mg/mL and stored at −80° C. For use in ELISA, peptides were further diluted in 0.1% casein in PBS down to 1 μg/mL. […] Standards were incubated overnight at 4° C. together with HRPO-labeled secondary antibody (JRF/cAβ40/28-HRPO or JRF/cAβ42/26-HRPO). After overnight incubation, plates were washed and the assay was developed with TMB peroxide EIA substrate kit (Biorad) according to the manufacturer's recommendations.

human Aβ3-42 peptide = target: T2, human Aβ3-42 peptide (human); experiment: sandwich ELISA, Aβ/pE3/1 coated, detection with JRF/cAβ42/26-HRPO
T2 construct: Synthetic peptide; also called N-truncated (Aβ3-42)
T2 sequence (peptide, as listed by the source): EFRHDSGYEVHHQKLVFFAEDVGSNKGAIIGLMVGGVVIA
Protocol: as §1, §2

human Aβ1-42 peptide = target: T3, human Aβ1-42 peptide (human); experiment: as above
T3 construct: Synthetic peptide; also called full-length human (Aβ1-42)
T3 sequence (peptide, as listed by the source): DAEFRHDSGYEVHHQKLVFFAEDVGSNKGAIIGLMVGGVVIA
Protocol: as §1, §2

human Aβ3pE-40 peptide [1] = target: T4, human Aβ3pE-40 peptide (human, pyroglutamate at the third residue of Aβ (N-terminal residue of this peptide)); experiment: sandwich ELISA, antibody coated, peptide standard, detection with JRF/cAβ40/28-HRPO
T4 construct: Synthetic peptide (AnaSpec)
Protocol: (§3) For the selected Aβ3pE monoclonal antibodies, the sensitivity for detection of Aβ3-40 (SEQ ID NO:24) (AnaSpec, Fremont, USA) and Aβ3pE-40 (SEQ ID NO:22) (AnaSpec, Fremont, USA) was evaluated in a sandwich assay using synthetic peptides as standards.
(§4) Standards of Aβ3-40 (SEQ ID NO:24) and Aβ3pE-40 (SEQ ID NO:22) peptides were dissolved in dimethylsulphoxide (DMSO) (Sigma) at 0.1 mg/mL and stored at −80° C. For use in ELISA, peptides were further diluted in 0.1% casein in PBS down to 1 μg/mL. […] Standards were incubated overnight at 4° C. together with HRPO-labeled secondary antibody. After overnight incubation, the plates were washed and the assay was developed with Quantablu substrate (Pierce, Rockford, Ill.) according to the manufacturer's recommendations.

human Aβ3-40 peptide [2] = target: T5, human Aβ3-40 peptide (human); experiment: as above
T5 construct: Synthetic peptide (AnaSpec), N-truncated, no pyroglutamate
Protocol: as §3, §4

human Aβ3pE-40 peptide [3] = target: T4, human Aβ3pE-40 peptide; experiment: sandwich ELISA: Aβ/pE3/1 coated as capture, peptide titrated, detection with JRF/cAβ40/28-HRPO, net OD 450 nm
Protocol: as §1, §2

human Aβ3-40 peptide [4] = target: T5, human Aβ3-40 peptide; experiment: as above
Protocol: as §1, §2

human Aβ1-40 peptide = target: T6, human Aβ1-40 peptide (human); experiment: as above
T6 construct: Synthetic peptide
Protocol: as §1, §2

human Aβ3pE-40 peptide [5] = target: T4, human Aβ3pE-40 peptide; experiment: SPR (Biacore T200), single cycle kinetics, antibody captured by anti-mouse antibody, peptide 3.125-50 nM, 1:1 fit, mean of n = 6
Protocol: Immobilization of the anti-mouse antibody was performed via amine coupling on a CM5 sensor chip following the manufacturer's protocol. […] The surface was regenerated with 10 mM glycine HCl at pH 1.7 for at least 180 sec and additional 60 sec. Human Aβ (1-40) peptide was used as a negative control.
Affinity measurements were performed using an optical biosensor T200 (Biacore®). Kinetic analysis was performed according to 1:1 binding fitting model with Biacore T200 Evaluation Software (version 2.0).

- binding result (rodent Aβ3pE-40): no binding (tested: up to 10 ng/mL)
- binding result (human Aβ3-42 peptide): binds
- binding result (human Aβ1-42 peptide): no binding (tested: up to 10 ng/mL)
- EC50 (human Aβ3pE-40 peptide [1]): 0.026 nM
- EC50 (human Aβ3-40 peptide [2]): 0.355 nM
- EC50 (read off the curve) (human Aβ3pE-40 peptide [3]): ~100 pg/mL
- EC50 (read off the curve) (human Aβ3-40 peptide [4]): ~1000 pg/mL
- binding result (human Aβ1-40 peptide): no binding (tested: 10000 pg/ml (LOG 4))
- Kd (human Aβ3pE-40 peptide [5]): 0.853 nM
B1: Aβ/pE3/1 (antibody, mouse IgG2a, kappa, V domains shown)
VH: QVQLQQPGAELVRPGASVKLSCKTSGYTFTRYWINWVKQRPGQGLEWIGNIRPSDSYTNYNQKFKDKATLTVDKSSSTAYMQLNRPTSEDSAVYYCTREGAYSDYETYWGQGTLVTVSA
VL: not shown
notes: Murine monoclonal; also called Clone 1; antibody from clone 1
